Data as given in patent US20240417439A1, “RECOMBINANT POLYPEPTIDE FOR DISRUPTING INTERACTION OF EAG2 AND KVß2 AND THERAPEUTIC APPLICATIONS THEREOF IN CANCER TREATMENT” (The Hospital for Sick Children, priority 2021, published 2024).
Values belong to the molecule of their own block, whether it stands above or below them. No end group written: not given here.

Assays:
[1] = peptide treatment of non-tumor-bearing mice; format: in vivo
Experimental: To further determine the impact of peptide treatment on mouse physiology, non-tumor-bearing mice were treated with K59-78^TAT or K90-114^TAT.

[2] = molecular target: T1, human voltage-gated potassium channel subfamily H member 5 (KCNH5, EAG2) (human, UniProt Q8NCM2 1-988); assay: co-IP in HEK293T cells
T1 construct: Full length EAG2 expressed in HEK293T cells and tested by co-IP from lysates; This id also stands for endogenous human EAG2 in lysates of GBM cells and of human fetal neural progenitor cells; also called full length EAG2
T1 sequence: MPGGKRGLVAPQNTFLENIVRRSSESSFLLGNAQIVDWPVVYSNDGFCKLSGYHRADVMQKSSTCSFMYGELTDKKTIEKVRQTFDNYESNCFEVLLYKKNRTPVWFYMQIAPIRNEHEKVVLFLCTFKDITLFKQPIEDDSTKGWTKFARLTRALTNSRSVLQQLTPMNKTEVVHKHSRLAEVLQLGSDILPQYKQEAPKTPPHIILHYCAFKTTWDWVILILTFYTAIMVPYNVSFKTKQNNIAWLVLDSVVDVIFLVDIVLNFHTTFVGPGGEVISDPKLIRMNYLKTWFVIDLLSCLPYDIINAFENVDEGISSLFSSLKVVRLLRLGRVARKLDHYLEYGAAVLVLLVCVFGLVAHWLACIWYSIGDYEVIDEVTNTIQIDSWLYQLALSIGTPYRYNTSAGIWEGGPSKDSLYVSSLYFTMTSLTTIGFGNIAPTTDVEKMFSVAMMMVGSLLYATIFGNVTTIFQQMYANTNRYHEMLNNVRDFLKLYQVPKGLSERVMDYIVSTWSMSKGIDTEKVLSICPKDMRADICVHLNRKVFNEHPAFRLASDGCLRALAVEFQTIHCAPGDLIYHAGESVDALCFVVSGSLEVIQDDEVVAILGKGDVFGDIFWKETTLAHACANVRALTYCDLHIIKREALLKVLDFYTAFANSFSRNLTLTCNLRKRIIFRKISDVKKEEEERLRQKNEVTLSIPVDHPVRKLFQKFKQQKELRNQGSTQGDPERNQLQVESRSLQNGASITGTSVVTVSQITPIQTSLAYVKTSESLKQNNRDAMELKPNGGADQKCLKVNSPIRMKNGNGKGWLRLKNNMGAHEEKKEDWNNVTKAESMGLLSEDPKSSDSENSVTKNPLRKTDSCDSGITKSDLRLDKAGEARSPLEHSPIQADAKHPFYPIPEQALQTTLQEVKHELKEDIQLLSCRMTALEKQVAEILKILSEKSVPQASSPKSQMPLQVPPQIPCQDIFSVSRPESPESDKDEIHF

[3] = molecular target: T1, human voltage-gated potassium channel …; assay: co-IP of overexpressed proteins in HEK293T cells
[4] = molecular target: T1, human voltage-gated potassium channel …; assay: co-IP in HEK293T cells (FIG. 26)
Experimental: Co-IPs of overexpressed proteins are performed using HEK293T cells.

Molecule: GRKKRRQRRRPQGSGSGSYAAGKAEVVLGNIIKKKGWRRSSLV [K90-114^TAT]
pathological features of internal organs (heart, kidney, liver, lung) [1]: did not reveal pathological features
body weight ([1]; K59-78^TAT versus K90-114^TAT): comparable body weight
survival ([1]; K59-78^TAT versus K90-114^TAT): comparable

B3: Kvß2 truncation mutant f8 (1-342 aa) (other)
chain: MYPESTTGSPARLSLRQTGSPGMIYSTRYGSPKRQLQFYRNLGKSGLRVSCLGLGTWVTFGGQITDEMAEQLMTLAYDNGINLFDTAEVYAAGKAEVVLGNIIKKKGWRRSSLVITTKIFWGGKAETERGLSRKHIIEGLKASLERLQLEYVDVVFANRPDPNTPMEETVRAMTHVINQGMAMYWGTSRWSSMEIMEAYSVARQFNLTPPICEQAEYHMFQREKVEVQLPELFHKIGVGAMTWSPLACGIVSGKYDSGIPPYSRASLKGYQWLKDKILSEEGRRQQAKLKELQAIAERLGCTLPQLAIAWCLRNEGVSSVLLGASNADQLMENIGAIQVLPK
notes: Expressed in HEK293T cells
binding result [3]: binds

B5: Kvß2 isoform 4 (other)
chain: MAEQLMTLAYDNGINLFDTAEVYAAGKAEVVLGNIIKKKGWRRSSLVITTKIFWGGKAETERGLSRKHIIEGLKASLERLQLEYVDVVFANRPDPNTPMEETVRAMTHVINQGMAMYWGTSRWSSMEIMEAYSVARQFNLTPPICEQAEYHMFQREKVEVQLPELFHKIGVGAMTWSPLACGIVSGKYDSGIPPYSRASLKGYQWLKDKILSEEGRRQQAKLKELQAIAERLGCTLPQLAIAWCLRNEGVSSVLLGASNADQLMENIGAIQVLPKLSSSIIHEIDSILGNKPYSKKDYRS
notes: Expressed in HEK293T cells; also called Kvβ2 isoform 4; Kvß2 splice isoform 4
binding result [2]: binds

B6: Kvß2 truncation mutant f4 (79-158 aa) (other)
chain: NGINLFDTAEVYAAGKAEVVLGNIIKKKGWRRSSLVITTKIFWGGKAETERGLSRKHIIEGLKASLERLQLEYVDVVFAN
notes: Expressed in HEK293T cells
binding result [4]: binds

B8: Kvß2 truncation mutant f7 (1-316 aa) (other)
chain: MYPESTTGSPARLSLRQTGSPGMIYSTRYGSPKRQLQFYRNLGKSGLRVSCLGLGTWVTFGGQITDEMAEQLMTLAYDNGINLFDTAEVYAAGKAEVVLGNIIKKKGWRRSSLVITTKIFWGGKAETERGLSRKHIIEGLKASLERLQLEYVDVVFANRPDPNTPMEETVRAMTHVINQGMAMYWGTSRWSSMEIMEAYSVARQFNLTPPICEQAEYHMFQREKVEVQLPELFHKIGVGAMTWSPLACGIVSGKYDSGIPPYSRASLKGYQWLKDKILSEEGRRQQAKLKELQAIAERLGCTLPQLAIAWCLRNEG
notes: Expressed in HEK293T cells
binding result [3]: binds

B10: Kvß2 truncation mutant f1 (1-158 aa) (other)
chain: MYPESTTGSPARLSLRQTGSPGMIYSTRYGSPKRQLQFYRNLGKSGLRVSCLGLGTWVTFGGQITDEMAEQLMTLAYDNGINLFDTAEVYAAGKAEVVLGNIIKKKGWRRSSLVITTKIFWGGKAETERGLSRKHIIEGLKASLERLQLEYVDVVFAN
notes: Expressed in HEK293T cells
binding result [3]: binds

B13: Kvß2 truncation mutant f2 (79-316 aa) (other)
chain: NGINLFDTAEVYAAGKAEVVLGNIIKKKGWRRSSLVITTKIFWGGKAETERGLSRKHIIEGLKASLERLQLEYVDVVFANRPDPNTPMEETVRAMTHVINQGMAMYWGTSRWSSMEIMEAYSVARQFNLTPPICEQAEYHMFQREKVEVQLPELFHKIGVGAMTWSPLACGIVSGKYDSGIPPYSRASLKGYQWLKDKILSEEGRRQQAKLKELQAIAERLGCTLPQLAIAWCLRNEG
notes: Expressed in HEK293T cells
binding result [4]: binds

Continued, values first:

binding result [2]: no binding
B1: Kvβ2 isoform 5 (other, human, UniProt Q13303-5 1-395, looked up)
chain: MYPESTTGSPARLSLRQTGSPGMIYSTRYGSPKRQLQFYRNLGKSGLRVSCLGLGTWVTFGGQITDEMAEQLMTLAYDNGINLFDTAEVYAAGKAEVVLGNIIKKKGWRRSSLVITTKIFWGGKAETERGLSRKHIIEGLKASLERLQLEYVDVVFANRPDPNTPMEETVRAMTHVINQGMAMYWGTSRWSSMEIMEAYSVARQFNLTPPICEQAEYHMFQREKVEVQLPELFHKIGVGAMTWSPLACGIVSGKYDSGIPPYSRASLKGYQWLKDKILSEEGRRQQAKLKELQAIAERLGCTLPQLAIAWCLRNEGVSSVLLGASNADQLMENIGAIQVRVRGPAGQRAHPSPSPVQCILPGSSCVPGSVLGTQDAPVNHQSCAPGELAFQQEQT
notes: Only the isoform number is printed; Whether it matches the UniProt isoform numbering is not confirmed

binding result [2]: no binding
B2: Kvβ2 isoform 3 (other, human, UniProt Q13303-3 1-415, looked up)
chain: MLSMTYSESLRSVSSRCHSEWALHPVRQTDTLELQRLREVRAAAQARNMESFLRMHGLSLDGCTAQRTGMKYRNLGKSGLRVSCLGLGTWVTFGGQITDEMAEQLMTLAYDNGINLFDTAEVYAAGKAEVVLGNIIKKKGWRRSSLVITTKIFWGGKAETERGLSRKHIIEGLKASLERLQLEYVDVVFANRPDPNTPMEGDPFSSSKSRTFIIEETVRAMTHVINQGMAMYWGTSRWSSMEIMEAYSVARQFNLTPPICEQAEYHMFQREKVEVQLPELFHKIGVGAMTWSPLACGIVSGKYDSGIPPYSRASLKGYQWLKDKILSEEGRRQQAKLKELQAIAERLGCTLPQLAIAWCLRNEGVSSVLLGASNADQLMENIGAIQVLPKLSSSIIHEIDSILGNKPYSKKDYRS
notes: as for B1

binding result [2]: no binding
B4: Kvβ2 isoform 2 (other, human, UniProt Q13303-2 1-353, looked up)
chain: MYPESTTGSPARLSLRQTGSPGMIYRNLGKSGLRVSCLGLGTWVTFGGQITDEMAEQLMTLAYDNGINLFDTAEVYAAGKAEVVLGNIIKKKGWRRSSLVITTKIFWGGKAETERGLSRKHIIEGLKASLERLQLEYVDVVFANRPDPNTPMEETVRAMTHVINQGMAMYWGTSRWSSMEIMEAYSVARQFNLTPPICEQAEYHMFQREKVEVQLPELFHKIGVGAMTWSPLACGIVSGKYDSGIPPYSRASLKGYQWLKDKILSEEGRRQQAKLKELQAIAERLGCTLPQLAIAWCLRNEGVSSVLLGASNADQLMENIGAIQVLPKLSSSIIHEIDSILGNKPYSKKDYRS
notes: as for B1

binding result [3]: no binding
B7: Kvß2 truncation mutant f6 (317-367 aa) (other)
chain: VSSVLLGASNADQLMENIGAIQVLPKLSSSIIHEIDSILGNKPYSKKDYRS
notes: Expressed in HEK293T cells

binding result [3]: no binding
B9: Kvß2 truncation mutant f5 (239-316 aa) (other)
chain: GAMTWSPLACGIVSGKYDSGIPPYSRASLKGYQWLKDKILSEEGRRQQAKLKELQAIAERLGCTLPQLAIAWCLRNEG
notes: Expressed in HEK293T cells

binding result [3]: no binding
B11: Kvß2 truncation mutant f3 (239-367 aa) (other)
chain: GAMTWSPLACGIVSGKYDSGIPPYSRASLKGYQWLKDKILSEEGRRQQAKLKELQAIAERLGCTLPQLAIAWCLRNEGVSSVLLGASNADQLMENIGAIQVLPKLSSSIIHEIDSILGNKPYSKKDYRS
notes: Expressed in HEK293T cells

binding result [3]: no binding
B12: Kvß2 truncation mutant f9 (1-355 aa) (other)
chain: MYPESTTGSPARLSLRQTGSPGMIYSTRYGSPKRQLQFYRNLGKSGLRVSCLGLGTWVTFGGQITDEMAEQLMTLAYDNGINLFDTAEVYAAGKAEVVLGNIIKKKGWRRSSLVITTKIFWGGKAETERGLSRKHIIEGLKASLERLQLEYVDVVFANRPDPNTPMEETVRAMTHVINQGMAMYWGTSRWSSMEIMEAYSVARQFNLTPPICEQAEYHMFQREKVEVQLPELFHKIGVGAMTWSPLACGIVSGKYDSGIPPYSRASLKGYQWLKDKILSEEGRRQQAKLKELQAIAERLGCTLPQLAIAWCLRNEGVSSVLLGASNADQLMENIGAIQVLPKLSSSIIHEIDSIL
notes: Expressed in HEK293T cells
